From paper PMC4702141 (Scientific Reports, 2016)
One block for each binder: values may come before it.

B1: mouse GDF-5 (ligand, UniProt P43027 376-495, looked up)
chain: APLANRQGKRPSKNLKARCSRKALHVNFKDMGWDDWIIAPLEYEAFHCEGLCEFPLRSHLEPTNHAVIQTLMNSMDPESTPPTCCVPTRLSPISILFIDSANNVVYKQYEDMVVESCGCR
notes: Growth differentiation factor 5, mouse, recombinant; source: bought: R&D Systems
B2: BMPRIA-Fc (Fc fusion)
chain: QNLDSMLHGTGMKSDSDQKKSENGVTLAPEDTLPFLKCYCSGHCPDDAINNTCITNGHCFAIIEEDDQGETTLASGCMKYEGSDFQCKDSPKAQLRRTIECCRTNLCNQYLQPTLPPVVIGPFFDGSIR
modifications: Extracellular domain; C-terminal human IgG Fc (left out) makes a disulfide-linked dimer. The protein was bought from R&D Systems with species and limits not given; human is taken as the likeliest …
B4: mouse GDF-6 (ligand, UniProt P43028 335-454, looked up)
chain: TAFASRHGKRHGKKSRLRCSRKPLHVNFKELGWDDWIIAPLEYEAYHCEGVCDFPLRSHLEPTNHAIIQTLMNSMDPGSTPPSCCVPTKLTPISILYIDAGNNVVYKQYEDMVVESCGCR
notes: Growth differentiation factor 6, mouse, recombinant; source: bought: R&D Systems
B6: recombinant BMPRIB-Fc (Fc fusion, mouse, UniProt P36898 14-126, looked up)
chain: KKEDGESTAPTPRPKILRCKCHHHCPEDSVNNICSTDGYCFTMIEEDDSGMPVVTSGCLGLEGSDFQCRDTPIPHQRRSIECCTERNECNKDLHPTLPPLKDRDFVDGPIHHK
notes: BMPRIB (ALK6), mouse, extracellular domain; cDNA fragment NM_007560.3, 4-378 bp, from FANTOM cDNA clones (RIKEN); also called ALK6; source: 293F cells, transfected, purified from culture supernatant (Protein A columns)

What was measured:
Test in all cases: SPR; BMPRIA-Fc or BMPRIB-Fc captured with an anti-human Fc IgG capture kit; ligands injected at 25 °C, 30 μL/min; HBS-EP (+) running buffer; single-cycle kinetics, 1:1 binding model, Biacore T100; average of 2 or 3 independent analyses
BMPRIA-Fc = biological target: B2; settings: both partners purified
human BMP6 = biological target: T1, human BMP6 (human, UniProt P22004 375-513); settings: both partners purified
T1 construct: Bone morphogenetic protein 6, human, recombinant; source: bought: R&D Systems
T1 sequence (looked up): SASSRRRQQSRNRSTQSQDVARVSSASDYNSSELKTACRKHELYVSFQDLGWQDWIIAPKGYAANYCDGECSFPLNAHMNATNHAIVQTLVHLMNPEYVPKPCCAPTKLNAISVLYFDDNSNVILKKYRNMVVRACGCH

mouse GDF-7 = biological target: T2, mouse GDF-7 (mouse, UniProt P43029 316-461); settings: both partners purified
T2 construct: Growth differentiation factor 7, mouse, recombinant; source: bought: R&D Systems
T2 sequence (looked up): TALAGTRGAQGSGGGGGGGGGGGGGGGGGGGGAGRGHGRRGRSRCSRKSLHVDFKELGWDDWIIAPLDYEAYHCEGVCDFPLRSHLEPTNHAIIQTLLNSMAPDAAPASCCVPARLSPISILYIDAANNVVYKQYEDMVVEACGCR

BMPRIA-Fc, P36895 = biological target: T3, BMPRIA-Fc, P36895; settings: remark: other sources report otherwise
T3 chain: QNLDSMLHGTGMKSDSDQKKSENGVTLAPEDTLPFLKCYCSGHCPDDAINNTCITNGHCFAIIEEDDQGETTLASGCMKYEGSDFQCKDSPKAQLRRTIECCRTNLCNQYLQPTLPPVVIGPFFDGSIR

recombinant BMPRIB-Fc = biological target: B6; settings: both partners purified
human BMP2 = biological target: T4, human BMP2 (human, UniProt P12643 283-396); settings: both partners purified
T4 construct: Bone morphogenetic protein 2, human, recombinant; source: bought: R&D Systems

human BMP4 = biological target: T5, human BMP4 (human, UniProt P12644 293-408); settings: both partners purified
T5 construct: Bone morphogenetic protein 4, human, recombinant; source: bought: R&D Systems
T5 sequence (looked up): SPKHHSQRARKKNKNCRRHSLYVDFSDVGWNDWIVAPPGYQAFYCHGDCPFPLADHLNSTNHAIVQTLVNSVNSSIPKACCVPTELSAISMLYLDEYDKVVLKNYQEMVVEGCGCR

human BMP7 = biological target: T6, human BMP7 (human, UniProt P18075 293-431); settings: both partners purified
T6 construct: Bone morphogenetic protein 7, human, recombinant; source: bought: R&D Systems
T6 sequence (looked up): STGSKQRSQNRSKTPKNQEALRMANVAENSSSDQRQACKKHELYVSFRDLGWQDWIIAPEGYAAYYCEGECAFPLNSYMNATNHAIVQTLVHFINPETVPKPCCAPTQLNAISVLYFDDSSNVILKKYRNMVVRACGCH

mouse GDF-5 = biological target: B1; settings: both partners purified
mouse GDF-6 = biological target: B4; settings: both partners purified

T4 sequence (P12643 283-396): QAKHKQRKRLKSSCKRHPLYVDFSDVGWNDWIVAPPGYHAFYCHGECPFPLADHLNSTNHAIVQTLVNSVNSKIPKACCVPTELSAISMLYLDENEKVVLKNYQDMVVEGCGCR

Binder: B1
Kd (BMPRIA-Fc): 1.63 nM

Binder: B2
Kd (human BMP6): 0.0792 nM | Kd (mouse GDF-7): 0.432 nM

Kd (BMPRIA-Fc, P36895): 1.95 nM
B3: human BMP7, P18075 293-431 (ligand)
chain: STGSKQRSQNRSKTPKNQEALRMANVAENSSSDQRQACKKHELYVSFRDLGWQDWIIAPEGYAAYYCEGECAFPLNSYMNATNHAIVQTLVHFINPETVPKPCCAPTQLNAISVLYFDDSSNVILKKYRNMVVRACGCH
modifications: here or on the partner: Extracellular domain; C-terminal human IgG Fc (left out) makes a disulfide-linked dimer. The protein was bought from R&D Systems with species and limits not given; human is taken as the likeliest pr

Binder: B4
Kd (BMPRIA-Fc): 0.48 nM

Kd (recombinant BMPRIB-Fc): 0.00945 nM
B5: human BMP10 (ligand, UniProt O95393 317-424, looked up)
chain: NAKGNYCKRTPLYIDFKEIGWDSWIIAPPGYEAYECRGVCNYPLAEHLTPTKHAIIQALVHLKNSQKASKACCVPTKLEPISILYLDKGVVTYKFKYEGMAVSECGCR
notes: Bone morphogenetic protein 10, human, recombinant; source: bought: R&D Systems

Binder: B6
Kd (human BMP2): 0.00248 nM | Kd (human BMP4): 0.221 nM | Kd (human BMP6): 0.00035 nM | Kd (human BMP7): 0.268 nM | Kd (mouse GDF-5): 0.129 nM | Kd (mouse GDF-6): 0.159 nM | Kd (mouse GDF-7): 0.209 nM
